Results on 30 sequences are retold here after the nanobody polyreactivity screen of Harvey et al. (2022).

A short description of the data set: yeast display, Sf9 membrane polyspecificity reagent, FACS + sequencing; frameworks hold sequencing errors. Summed up: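 Sorting gates, low and high (top ~1%), were placed on anti-HA fluorescence to track expression and on streptavidin fluorescence to track reagent binding. A clone's polyreactivity label is taken from the gate it came out of. The reagent was 10% biotinylated, detergent-solubilized Sf9 membrane, applied for 1 hour at 4 °C to galactose-induced yeast display cells.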
For “QVQLEESGGGLVQAGGSLRLSCAASGRTFKYYSMGWYRPAPGKERELVAAIRSRTGSTYYADSVKGRFTISRDNAKNTVYLQMNSLKPEDTAVYYCAAQPGSYYGPRWYYDDDYWGQGTQVTVSS”, the “polyreactivity (PSR sort gate)” value is given as “high polyreactivity”.
For “QVQLEESGGGLVQAGGSLRLSCAASGRTFRSYTMGWYRQAPGKERELGAAISYNGGSTYYADSVNGRFTISRDYAKNTVYLQMNSLKPEDTSVYYCAVYSIYGFYYWGQGTQVTVSS” the value was “high polyreactivity”; for “QVQLEESGGGLVQAGGSLRLSCAASGRTFSRYAMGWYRQAPGKERELVAAIRGNSGNTYYADSVKGRFTISRDNAKNTVYLQMNSLKPEDTAVYYCAKPFNIWGQGTQVTVSS”, “high polyreactivity”; for “QVQLEESGGGLVQAGGSLRLSCAASGRTFTHYAMGWYRQAPGRERELVAGITRSGGITYYADSVKGRFTISRDNANNTVYLQMNSLKPEDTAVYYCNAGFHGLAYFLKPEYDYWGQGTQVTVSS”, “low polyreactivity”.
Regarding “QVQLEESGGGLVQAGGSLRLSCAASGRTFYRYAMGWYRQAPGKERELVAAITWSGGSTYYADSVKGRFTTSRDNAKNTVYLQMNSLKPEDTAVYYCARRLYPYRPTAYDYWGQGTQVTVSS”, the “polyreactivity (PSR sort gate)” value is “low polyreactivity”.
For “QVQLEESGGGLVQAGGSLRLSCAASGRTFYTNAMGWYRQAPGKERELVAAISGRGSTYYADSVKGRFTISRDNAKNTVYLQMNSLKPEDTAVYYCAALLPGRSSSDYWGQGTLVTVSS” the value was “high polyreactivity”; for “QVQLEESGGGLVQAGGSLRLSCAASGRTFYVYTMGWYRQAPRKERELFAGISYSGGSTYYADSVKGRFTISRDTAKKTVYLQKYSLKPEDTAVYYCNAELYFPYFDGKTRHGGYWGQGSQVTVSS”, “low polyreactivity”.
The result for “QVQLEESGGGLVQAGGSLRLSCAASGRTLSHYAKGWYRKAPGKERELVAAITRSGGSTYYADSVKGRFTISRDNAKNTVYLQMNRLKPEDTAVYYWNKTLYTSYDFWGQGTQVTVSS” reads “low polyreactivity”.
Turning to “QVQLEESGGGLVQAGGSLRLSCAASGSIFALYTIGWSRQAPRKERELVAAISSRGGSTYYADSVKGRFTISRDNAKNTVYLQMNSLKPEDTAVYYCNAVVRESAYNFDYWGQGTQVTVSS”, the “polyreactivity (PSR sort gate)” value is “high polyreactivity”.
The result for “QVQLEESGGGLVQAGGSLRLSCAASGSIFAVYAMGWYRHAPGKERELVAAIRSGSRTYYADSVKGRFTISRDNAKNTVYLQMNSLKPEDTAVYYCATTYGTPRYDYWGQGTQVTVSS” reads “high polyreactivity”; that for “QVQLEESGGGLVQAGGSLRLSCAASGSIFGANAMAWYRQAPGKERDLVAAITTSGGSTFYADSVKGRFTISRDNAKNTVYLQMNCLKPEDNAVYYCAAEWVYSIKSVYIYEMYYWGQGTQVTVSS”, “low polyreactivity”.
Turning to “QVQLEESGGGLVQAGGSLRLSCAASGSIFGQYAMGWYRQAPGKERELVAAISTRGGSTRYADSVKGRFTISRDNAKNTVYLQMNSLTPEGTAVYYCAARVPYIRHLAVDYWGQGTQVTVSS”, the “polyreactivity (PSR sort gate)” value is “high polyreactivity”.
For “QVQLEESGGGLVQAGGSLRLSCAASGSIFGTYAMGWYRQAPGKEREFVAAISWSDGSTYYADSVKGRFTISRDNAKNTVYLQMNSLKPEDTAVYYCAVRRVGSIYIDRYIYVVADYDYWGQGTQVTVSS” the value was “low polyreactivity”.
The result for “QVQLEESGGGLVQAGGSLRLSCAASGSIFGYYAMGWYRQAPGKERELVAAITTGGSTSYADSVKGRFTISRDNAKNTVYLQMNSLKPEDTAVYYCNARFKRLFGRADDYWGQGTQVTVSS” reads “low polyreactivity”; that for “QVQLEESGGGLVQAGGSLRLSCAASGSIFIRNAMGWYRQAPGKERELVAAISTIGGRTYYADSVKGRFTISRDNAKNTVYLQMNSQKPEDTAVYYCAAEQGTPSTNWFDYWGQGTQVTVSS”, “low polyreactivity”; that for “QVQLEESGGGLVQAGGSLRLSCAASGSIFIYYAMGWYRQAPGKERELVAGINFNGGSTYYADSVKVRFTISRDNAKNTVYLQMNSLKPEDTAVYYCAADELWWTYWDFVTNWYQRDYWGQGTQVTVSS”, “low polyreactivity”.
For “QVQLEESGGGLVQAGGSLRLSCAASGSIFNVNTIGWYRQAPGKEREFVAAISYSGGSTYYADSVKGRFTISRDNAKNTVYLQMNSLKAEDTALYYCNVSPTTSGDGGGYDSWGQGTQVTVSS” the value was “low polyreactivity”; for “QVQLEESGGGLVQAGGSLRLSCAASGSIFRGYAMGWYRQAPGKERELVAAINWSGSSTYYADSVKGRFTISRDNAKNTVYLQMNSPKPEDTAVYYCARVYYNRNLGGDYWGQGTQVTVSS”, “low polyreactivity”.
In the case of “QVQLEESGGGLVQAGGSLRLSCAASGSIFRVYAMGWYRQAPGKERELVAAISQSADSTYYADSVKGRFTILRDNAKNTVYFQMNSLKPEDTAVYYCAAEYPYIYRFDYWGQGTQVTVSS”, the “polyreactivity (PSR sort gate)” value is listed as “low polyreactivity”.
Turning to “QVQLEESGGGLVQAGGSLRLSCAASGSIFTVNAMGWYRQATGKQMELVAAISQSGGSTYYADSVKGRFTISRDNAKNTVYLQMNSLKPEDTAVYYCNALLFIVHGDKSQTMDYWGQGTQVTGSS”, the “polyreactivity (PSR sort gate)” value is given as “low polyreactivity”.
On to “QVQLEESGGGLVQAGGSLRLSCAASGSIFVPYAMGWYRQAPGKERELVASISWRGGSTYYADSVKGRFTISRDNAKNTVYLQMNSLKPEDTAVYYCAAQKRGSPGYRRDYWGQGTQVTVSS”, for which the “polyreactivity (PSR sort gate)” value was “high polyreactivity”.
The result for “QVQLEESGGGLVQAGGSLRLSCAASGSIFWLYAMGWYRQAPGKEREFVAAITTSGSSTRYADSVKGRFTISRDNAKNTVYVQMNSLKPEDTAVYYCAARNRTFFQPTYYYWGQGTQVTVSS” reads “high polyreactivity”; that for “QVQLEESGGGLVQAGGSLRLSCAASGSIFYKYAMGWYRQAPGKEREFVATIRYSGGSTYYADSVKGRFTISRDNAKNTVYLQMNILKPEDTAVFYCAADAYSYGYDSWGQGTQVTVSS”, “high polyreactivity”.
As to “QVQLEESGGGLVQAGGSLRLSCAASGSTFAVYAMGWYRQAPGKERELVAAINRSGDSTYYADSVKGRFTISRDNAKNTVYLQMNSLKPEDTAVYYCAAYQRVRSGVDMYSWGQGTQVTVSS”, the “polyreactivity (PSR sort gate)” value is listed as “high polyreactivity”.
With “QVQLEESGGGLVQAGGSLRLSCAASGSTFDTYAMGWYRPAPGKERELVAGITRRGGRTYYADSVKGRFTISRDTAKNTVYLQKYSLKPEDTAVYYCNAVPQRPVGKRDHWGQGTQVTVSS”, the “polyreactivity (PSR sort gate)” value is given as “high polyreactivity”.
The result for “QVQLEESGGGLVQAGGSLRLSCAASGSTFEYKAKGWYRQAPGKERELVASSTNYADSVKGRFTISRDNAKNTVYLQMNSLKPEDTAVYYCAREQGVNRNHDYWGQGTQVTVSS” reads “low polyreactivity”; that for “QVQLEESGGGLVQAGGSLRLSCAASGSTFFIYAMGWYRQAPGKEREMVAAISGSGGTTYYADSVKGRFTISRDNAKNTVYLQMNSLKPEDTAVYYCAARTFSAFWRGGYDYWGQGTQVTVSS”, “low polyreactivity”.
The result for “QVQLEESGGGLVQAGGSLRLSCAASGSTFHGYAMGWYRQEPGKERELVAAITSGDSTNYADSVKGRFTISRDNAKNTVYLQMNSLKPEDTAVYYCNAEGSSVLTGYWGYPPYWDTYDYWGQGTQVTVSS” reads “low polyreactivity”.
As for “QVQLEESGGGLVQAGGSLRLSCAASGSTFKYYAMGWYRQAHGKERELVAAISRRGGSTYYADSVKGRFTISRDNAKNTVYLQMNSLKPEDTAVYYCAADIIRPVTVDYWGQGTQVTVSS”, the “polyreactivity (PSR sort gate)” value is “high polyreactivity”.
On to “QVQLEESGGGLVQAGGSLRLSCAASGSTFQENAMGWYRQAPGKEREFVAAISGSGGSTYYADSVKGRFTISRDNAKNTVYLQMNSLKPEDTAVYYCAARHYFRSRRRYDYWGQGTQVTVSS”, for which the “polyreactivity (PSR sort gate)” value was “low polyreactivity”.
